Measured values: PMC3431356, “Staphylococcus aureus Methicillin-Resistance Factor fmtA Is Regulated by the Global Regulator SarA”

Columns and labels:
[1] = molecular target: T1, SarA (Staphylococcus aureus MRSA252, UniProt Q6GJ52 1-124); test: EMSA; printed as >=1.8 uM; no saturation up to 3.6 uM, binding stated; EMSA: 10 mM Tris-HCl pH 7.5, 50 mM KCl, 1 mM DTT, 5 mM MgCl2, 2.5% glycerol, 1 ug poly(dI-dC), 200 ng herring sperm DNA, 30 min, temperature not stated, 6% native gel; Kd = protein at 50% bound DNA. Footprinting: same buffer, 37 C, DNase I at 25 C; details: protein: recombinant; tags: none (pET22b, pelB leader removed); chain copies: 2; label: 5'-32P
T1 sequence: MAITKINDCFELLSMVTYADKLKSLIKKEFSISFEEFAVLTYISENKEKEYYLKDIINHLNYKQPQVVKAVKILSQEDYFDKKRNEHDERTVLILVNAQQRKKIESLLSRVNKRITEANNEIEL

[2] = molecular target: T1, SarA; test: EMSA; no binding up to 1.8 uM SarA; EMSA: 10 mM Tris-HCl pH 7.5, 50 mM KCl, 1 mM DTT, 5 mM MgCl2, 2.5% glycerol, 1 ug poly(dI-dC), 200 ng herring sperm DNA, 30 min, temperature not stated, 6% native gel; Kd = protein at 50% bound DNA. Footprinting: same buffer, 37 C, DNase I at 25 C; details: protein: recombinant; tags: none (pET22b, pelB leader removed); chain copies: 2; label: 5'-32P
[3] = molecular target: T1, SarA; test: EMSA; EMSA: 10 mM Tris-HCl pH 7.5, 50 mM KCl, 1 mM DTT, 5 mM MgCl2, 2.5% glycerol, 1 ug poly(dI-dC), 200 ng herring sperm DNA, 30 min, temperature not stated, 6% native gel; Kd = protein at 50% bound DNA. Footprinting: same buffer, 37 C, DNase I at 25 C; details: protein: recombinant; tags: none (pET22b, pelB leader removed); chain copies: 2; label: 5'-32P; blunt

B1: seqA1 (dsDNA)
DNA 1: CATTATAGCCTTAAATTGTAGTACTTTATAGTAAAAAATACAAATGTTATGTC
DNA 2: GACATAACATTTGTATTTTTTACTATAAAGTACTACAATTTAAGGCTATAATG
- Kd [1]: > 1800 nM

B2: seqB1 (dsDNA)
DNA 1: CATATTAGAAAAACTTATTACTATGTAGCGTAAAGC
DNA 2: GCTTTACGCTACATAGTAATAAGTTTTTCTAATATG
- binding result [2]: no binding

B3: Pagr 45-bp (dsDNA)
DNA 1: GTAAATTTTTTTATGTTAAAATATTAAATACAAATTACATTTAAC
DNA 2: GTTAAATGTAATTTGTATTTAATATTTTAACATAAAAAAATTTAC
- Kd [3]: ~400 nM
